Reference: publication PMC12102759

Key:
Experiment in all cases: fluorescence polarisation
[1] = biological target: FITC-labeled MBOAT1 probe peptide FITC-… (human)
[2] = biological target: FITC-labeled PRDM14 probe peptide FITC-… (human)
[3] = biological target: FITC-labeled NCOA2 probe peptide FITC-… (human)
[4] = biological target: FITC-labeled NKRF probe peptide FITC-…
[5] = biological target: SARS‐CoV‐2 NSP3 UBl1 domain (819–925), tag cleaved, for FP (SARS-CoV-2) (UniProt P0DTD1)
[6] = biological target: SARS‐CoV‐2 NSP9 (4141–4253), tag cleaved, for FP (SARS-CoV-2) (UniProt P0DTD1)
[7] = biological target: SARS‐CoV‐2 NSP3 SUD‐M domain (1356–1493), tag cleaved, for FP (SARS-CoV-2) (UniProt P0DTD1)

Substance: SARS-CoV-2 NSP3 ADRP domain (domain or fragment)
- Kd [1]: 51 µM

Substance: SARS-CoV-2 NSP3 SUD-M domain (domain or fragment)
- Kd [2]: 23 µM

Substance: SARS-CoV-2 NSP3 UBl1 domain (domain or fragment)
- Kd [3]: 67 µM

Substance: SARS-CoV-2 non-structural protein 9 (NSP9) (natural protein)
- Kd [4]: 15.5 µM

Substance: wild‐type NCOA2_(1073–1088) peptide (from UniProt Q15596 1073-1088)
- Kd [5]: 39 µM

Substance: wild‐type NOTCH4 peptide (synthetic)
- Kd [6]: 72 µM

Substance: wild‐type PRDM14 peptide (synthetic)
- Kd [7]: 74 µM
